Source: patent publication US20090062512A1, “Comparative ligand mapping from MHC class I positive cells” (priority 2000, published 2009)

What was measured:
Type in all cases: cell-based
[1] = biological target: A*0201 class I MHC molecules in cells infected with the West Nile virus (Homo sapiens, UniProt P04439, D140Y/D185E/D98H/E176V/E277Q/G131W/G231S/I119V/I121R/I166T/I218V/L300P/L318F/N151K/N90K/P208A/P217A/Q86G/Q94H/R138H/R169H/T345S)
[2] = biological target: sHLA-A*0201 from MCF-7, MDA-MB-231, BT-20 and MCF10A (Homo sapiens, UniProt P04439, D140Y/D185E/D98H/E176V/E277Q/G131W/G231S/I119V/I121R/I166T/I218V/L300P/L318F/N151K/N90K/P208A/P217A/Q86G/Q94H/R138H/R169H/T345S); assay: MS comparative analysis of sHLA-A*0201 peptides, breast cancer cell lines vs nontumorigenic MCF10A; details: for FOLD INCREASE BT-20 over MCF10A / FOLD INCREASE MCF-7 over MCF10A / FOLD INCREASE MDA-MB-231 over MCF10A: peptide epitope presented on sHLA-A*0201; for FOLD INCREASE BT-20 over MCF10A: BT-20 vs nontumorigenic MCF10A; for FOLD INCREASE MCF-7 over MCF10A: MCF-7 vs nontumorigenic MCF10A; for FOLD INCREASE MDA-MB-231 over MCF10A: MDA-MB-231 vs nontumorigenic MCF10A; for presentation by HLA A*0201 of tumorigenic vs nontumorigenic cell lines: MCF-7, MDA-MB-231, BT-20 vs MCF10A
[3] = biological target: A*0201 class I MHC molecules in cells infected with the PR8 strain of influenza A virus (Homo sapiens, UniProt P04439, D140Y/D185E/D98H/E176V/E277Q/G131W/G231S/I119V/I121R/I166T/I218V/L300P/L318F/N151K/N90K/P208A/P217A/Q86G/Q94H/R138H/R169H/T345S)
[4] = biological target: B*0702 class I MHC molecules in cells infected with the PR8 strain of influenza A virus (Homo sapiens, UniProt P01889)

## LLDVPTAA
[1]
  Fold Increase: Unique

## KIVVVTAGV
[1]
  Fold Increase: Unique

## AQYEHDLEVA
[2]
  FOLD INCREASE BT-20 over MCF10A: 8
  FOLD INCREASE MCF-7 over MCF10A: 34
  FOLD INCREASE MDA-MB-231 over MCF10A: 2

## TLYEAVREV
[2]
  FOLD INCREASE BT-20 over MCF10A: 7.9
  FOLD INCREASE MCF-7 over MCF10A: None
  FOLD INCREASE MDA-MB-231 over MCF10A: 2.3

## NLMHISYE
[1]
  Fold Increase: Unique

## GLIEKNIEL (listed as Homo sapiens)
[3]
  Fold Increase: 1.58
[2]
  presentation by HLA A*0201 of tumorigenic vs nontumorigenic cell lines: shared by all 4 cell lines

## LDQSVTHL
[1]
  Fold Increase: Unique

## ATWAENIQV
[1]
  Fold Increase: Unique

## RLDDDGNFQL
[1]
  Fold Increase: Unique

## KILDLETQL
[2]
  FOLD INCREASE BT-20 over MCF10A: 7
  FOLD INCREASE MCF-7 over MCF10A: 9
  FOLD INCREASE MDA-MB-231 over MCF10A: 1.4

## LLQEVEHQL (listed as Homo sapiens)
[2]
  presentation by HLA A*0201 of tumorigenic vs nontumorigenic cell lines: found only in the MCF-7 peptide pool

## SLFGQRIEN
[1]
  Fold Increase: Unique

## SLFPGKLEV
[2]
  FOLD INCREASE BT-20 over MCF10A: 2
  FOLD INCREASE MCF-7 over MCF10A: 5
  FOLD INCREASE MDA-MB-231 over MCF10A: 2.2

## AARPATSTL
[4]
  Fold Increase: 5.1

## APRPVAVAV
[4]
  Fold Increase: 1.5

## YPFKPPKVAF
[4]
  Fold Increase: 3.27

## RPQGGQDIL
[4]
  Fold Increase: 2.24

## VLDELKVA
[1]
  Fold Increase: Unique

## APKIGPLGL
[4]
  Fold Increase: 1.54

## SPPSKPTVL
[4]
  Fold Increase: 1.9

## SVGGVFTSV
[1]
  Fold Increase: Unique

## SPGIPNPGAPL
[4]
  Fold Increase: 1.84

## SLLEKSLGL (listed as Homo sapiens)
[3]
  Fold Increase: 1.64
[2]
  FOLD INCREASE BT-20 over MCF10A: None
  FOLD INCREASE MCF-7 over MCF10A: 7.9
  FOLD INCREASE MDA-MB-231 over MCF10A: 7.4

## GPRSSLRVL
[4]
  Fold Increase: 3.16

## SPKIRRL
[4]
  Fold Increase: 1.63

## RVEPLRNEL
[4]
  Fold Increase: 1.95

## LPRGSSPSVL
[4]
  Fold Increase: 1.57

## YTMDGEYRL
[1]
  Fold Increase: Unique

## DPMKARVVL
[4]
  Fold Increase: 1.87

## ITAPPSRVL
[4]
  Fold Increase: 1.98

## LLPGENINLL
[4]
  Fold Increase: 7.13

## APGAPPRTL
[4]
  Fold Increase: 1.5

## LVFQPVAEL
[4]
  Fold Increase: 4.33

## RPPPIGAEV
[4]
  Fold Increase: 2.9

## FLKEPALNEA
[1]
  Fold Increase: Unique

## GPREAFRQL
[4]
  Fold Increase: 6.03

## SLFGGSVKL
[2]
  FOLD INCREASE BT-20 over MCF10A: 1.3
  FOLD INCREASE MCF-7 over MCF10A: 5
  FOLD INCREASE MDA-MB-231 over MCF10A: 2.6

## YQFTGIKKY
[4]
  Fold Increase: 2.3

## YPKRPLLGL
[4]
  Fold Increase: 1.61

## NLGSPRPL
[4]
  Fold Increase: 5.6

## APPPPPKAL
[4]
  Fold Increase: 2.29

## APKRPPSAF
[4]
  Fold Increase: 1.82

## RIVPRFSEL
[4]
  Fold Increase: 1.54

## ARPATSL
[4]
  Fold Increase: 2.2

## SPGPPTRKL
[4]
  Fold Increase: 1.9

## TQFVRFDSD
[4]
  Fold Increase: 1.64
